Drawing on patent publication US20200339680A1, this text covers MFI, fold over parental HEK293 and fold over negative controls for one molecule.

The target in test [1] is human TMEM106B (human) (UniProt Q9NUM4). In words: FACS HEK+huTMEM 10 ug/ml.
Test [2] has the same target. The test can be described thus: FACS, transfected HEK293.
In test [3] the target is mouse TMEM106B (mouse) (UniProt Q80X71). The test can be described thus: FACS, transfected HEK293.
Test [4] concerns the target human TMEM106B (human) (UniProt Q9NUM4). In words: FACS HEK+huTMEM 0.1 ug/ml (2nd column so headed).
Test [5] has the same target. The test can be described thus: FACS A549.
The target is the same in test [6]. The test can be described thus: FACS A549 10 ug/ml.
Test [7] has the same target. In words: FACS U251.
For test [8] the target is unchanged. In words: FACS HEK+huTMEM 0.1 ug/ml.
Test [9] has as its target mouse TMEM106B (mouse) (UniProt Q80X71). In words: FACS Neuro2a.
Test [10] deals with human TMEM106B (human) (UniProt Q9NUM4). In words: FACS A549 1 ug/ml.
The target is the same in test [11]. In words: FACS, supernatant, hu-transfected HEK293.
Test [12] has the same target. The test can be described thus: FACS HEK+huTMEM 1.0 ug/ml.
Test [13] has the same target. The test can be described thus: FACS HeLa.

B1: TM-4 (antibody, V domains shown)
VH: EVQVQQSGPVLVKPGASVKMSCKASGYTFTDYYMNWVKQSHGKNLEWIGVINPYNGGTSYHQKFKGKATLTVDKSSSTAYMELNSLTSEDSAVYYCARAATVVAGFDYWGQGTTLTVSS
VL: QAVVTQESALTTSPGETVTLTCRSSTGAVTTSNYANWVQEKPDHLFTGLIGGTNNRAPGVPARFSGSLIGDKAALTITGAQTEDEAIYFCVLWYSNHLVFGGGTKLTVL
Consider B1, for which the MFI with human TMEM106B (human) [1] turned out to be 846 MFI; with human TMEM106B (human) [4], 282 MFI; with human TMEM106B (human) [5] it was 916 MFI; with human TMEM106B (human) [6], 443 MFI; with human TMEM106B (human) [7], 349 MFI; in the test with human TMEM106B (human) [8], 304 MFI. Besides, the MFI worked out at 325 MFI in the test with mouse TMEM106B (mouse) [9], 373 MFI with human TMEM106B (human) [10], 415 MFI in the test with human TMEM106B (human) [12] and 323 MFI with human TMEM106B (human) [13]. For the same molecule, the fold over parental HEK293 was 1.13 fold with human TMEM106B (human) [2] and 1.97 fold with mouse TMEM106B (mouse) [3]. Also, the fold over negative controls in the test with human TMEM106B (human) [11] was > 2 fold.
